This is an account of results in patent US20160068605A1 (Janssen / Centocor, published 2016).

Usually Kd stands for the free concentration of one partner at which half of the binding sites on the other are occupied at equilibrium, for simple one-to-one binding. As usually defined, the koff is the first-order rate constant of dissociation. In general, kon refers to a measure of how fast the partners come together.

The target in assay [1] is T1, cell-surface CD3 epsilon on primary cynomolgus T cells (cynomolgus monkey, UniProt Q95LI5 22-198).
T1 construct: whole, on cells; also called cynomolgus CD3e; Cyno T-cells
T1 sequence (Q95LI5 22-198): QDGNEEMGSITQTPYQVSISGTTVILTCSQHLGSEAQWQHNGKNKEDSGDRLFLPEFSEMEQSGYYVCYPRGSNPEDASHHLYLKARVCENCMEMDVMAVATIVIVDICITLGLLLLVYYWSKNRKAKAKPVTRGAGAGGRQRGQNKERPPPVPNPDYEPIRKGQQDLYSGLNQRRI
The experiment in a line: flow cytometry competition with labeled CD3B146 on T cells. The source says:
(§1) The format involved competition binding using a fixed concentration of labeled anti-CD3 mAb of known affinity and increasing concentrations of unlabeled test Abs (Ashkenazi A et al. PNAS: 88:10535, 1991.).

In assay [2] the target is T2, cell-surface CD3 epsilon on primary human T cells (human, UniProt P07766 23-207).
T2 construct: whole, on cells; part of the CD3/TCR complex on the cells
T2 sequence (P07766 23-207): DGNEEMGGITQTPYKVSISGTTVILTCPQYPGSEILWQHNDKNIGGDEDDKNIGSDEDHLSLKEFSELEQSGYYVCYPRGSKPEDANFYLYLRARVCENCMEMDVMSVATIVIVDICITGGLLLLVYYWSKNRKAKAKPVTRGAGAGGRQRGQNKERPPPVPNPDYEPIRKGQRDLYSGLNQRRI
The assay is described as above.
Text: as §1

Assay [3] concerns the target T3, Recombinant human CD123 SP1 ECD-His tag protein (human, UniProt P26951 20-305).
T3 construct: bought from R&D Systems (#301-R3/CF); biotinylated for some assays; also called rhCD123 SP1; huCD123 ECD SP1
T3 sequence: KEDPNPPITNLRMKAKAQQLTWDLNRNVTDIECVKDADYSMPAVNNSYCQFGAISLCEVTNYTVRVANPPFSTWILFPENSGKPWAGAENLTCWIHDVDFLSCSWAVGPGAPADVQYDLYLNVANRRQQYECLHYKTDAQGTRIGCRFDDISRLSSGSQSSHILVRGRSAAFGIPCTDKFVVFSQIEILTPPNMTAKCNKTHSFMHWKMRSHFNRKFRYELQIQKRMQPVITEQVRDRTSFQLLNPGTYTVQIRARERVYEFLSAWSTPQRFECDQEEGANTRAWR
Nature of the assay: SPR ProteOn, captured mAb. On the procedure: (§2) The biosensor surface was prepared by covalently coupling Goat anti-Human IgG (Fc) to the surface of a GLC chip (BioRad) using the manufacturer instructions for amine-coupling chemistry. […] The RU immobilized also included a goat anti-mouse Fc antibody that was added to capture other antibodies not included in the ones reported here. Since the mixture was 1:1 about 50% of these RU immobilized are expected to be goat anti-human Fc. The kinetic experiments were performed at 25° C. in running buffer (PBS pH 7.4, 0.005% P20, 3 mM EDTA). […] The reference spots (Goat anti-Human IgG (Fc)-modified surface) containing no candidate captured were used as a reference surface. Capture of mAb was followed by 3 min injection (association phase) of antigen at 40 μL/min, followed by 10 min of buffer flow (dissociation phase). […] Data was processed on the instrument software. Double reference subtraction of the data was performed by subtracting the curves generated by buffer injection from the reference-subtracted curves for analyte injections. Kinetic analysis of the data was performed using 1:1 Langmuir binding model with group fit. The result for each mAb was reported in the format of Kₐ (kon or on-rate), Kd (koff or off-rate), KD (Equilibrium dissociation constant) (Table 5).

Assay [4] has as its target T4, Recombinant human CD123 SP2 ECD protein (human, UniProt P26951 101-303).
T4 construct: also called rhCD123 SP2; CD123 ECD SP2
T4 sequence: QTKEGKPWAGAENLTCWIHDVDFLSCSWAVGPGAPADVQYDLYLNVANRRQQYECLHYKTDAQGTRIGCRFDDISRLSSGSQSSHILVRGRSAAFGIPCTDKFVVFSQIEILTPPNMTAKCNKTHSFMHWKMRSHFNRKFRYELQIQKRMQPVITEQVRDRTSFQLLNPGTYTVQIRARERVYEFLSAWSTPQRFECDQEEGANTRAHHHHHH
The experiment in a line: SPR ProteOn, captured mAb. On the procedure:
as §2

The target in assay [5] is T5, cyno CD123 ECD displayed on pDisplay-transfected cells (cynomolgus monkey).
T5 construct: ECD anchored on the surface of stably transfected HEK293 cells; also called cynoCD123 SP1 cells; cynoCD123 cells
T5 chain: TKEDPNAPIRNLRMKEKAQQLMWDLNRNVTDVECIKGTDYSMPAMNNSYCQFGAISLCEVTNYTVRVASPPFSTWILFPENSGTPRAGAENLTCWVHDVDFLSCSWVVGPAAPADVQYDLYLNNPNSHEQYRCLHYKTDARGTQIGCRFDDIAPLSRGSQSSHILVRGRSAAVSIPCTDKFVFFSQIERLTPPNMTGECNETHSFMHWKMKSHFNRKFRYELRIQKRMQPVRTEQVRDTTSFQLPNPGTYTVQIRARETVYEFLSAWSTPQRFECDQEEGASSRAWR
Nature of the assay: MSD cell binding on 293F pDisplay cells; fold change over background; parental 293F cells as control. On the procedure: The object of the screening assay was to identify antibodies that bound to cells expressing hCD123 SP1 and SP2 as well as cross reactivity with cells expressing cynoCD123 SP1.
Cells were immobilized and phages were assayed in triplicate. […] 5000 cells per well were plated into a 384 well plate (MA6000, cat. L21XB, MSD) and allowed to adhere for 2 hr. Cells were then blocked with 20% FBS in PBS (Gibco) for 15 mins. Antibody supernatants were then added and left at RT for 1 hr. Cells were washed 3 times with PBS and a ruthenium labeled secondary antibody (Jackson Immuno Research) was then added at 1 μg/mL and incubated for 1 hr at room temperature. A further washing step was then applied and 35 μL per well of MSD Read buffer T (surfactant free) was then added and incubated for 30 min for detection. Plates were then read using Sector Imager 2400 (MSD). Data was normalized to controls and graphed using GraphPad Prism Version 5. A positive binder was determined to be a hit with a signal 3× greater than background (FIGS. 2A, B and C).

Where “and” joins values, the source holds several entries; their conditions need not be identical. Identical values can stand only once.

B1: CD123 null 2 (bispecific antibody, human IgG4 S228P, lambda, F234A L235A)
heavy: EVQLLESGGGLVQPGGSLRLSCAASGFTFNTYAMNWVRQAPGKGLEWVARIRSKYNNYATYYADSVKGRFTISRDNSKNTLYLQMNSLRAEDTAVYYCVKHGNFGNSYVSWFAYWGQGTLVTVSSASTKGPSVFPLAPCSRSTSESTAALGCLVKDYFPEPVTVSWNSGALTSGVHTFPAVLQSSGLYSLSSVVTVPSSSLGTKTYTCNVDHKPSNTKVDKRVESKYGPPCPPCPAPEAAGGPSVFLFPPKPKDTLMISRTPEVTCVVVDVSQEDPEVQFNWYVDGVEVHNAKTKPREEQFNSTYRVVSVLTVLHQDWLNGKEYKCKVSNKGLPSSIEKTISKAKGQPREPQVYTLPPSQEEMTKNQVSLTCLVKGFYPSDIAVEWESNGQPENNYKTTPPVLDSDGSFLLYSKLTVDKSRWQEGNVFSCSVMHEALHNHYTQKSLSLSLGK
light: QAVVTQEPSLTVSPGGTVTLTCRSSTGAVTTSNYANWVQQKPGQAPRGLIGGTNKRAPGTPARFSGSLLGGKAALTLSGAQPEDEAEYYCALWYSNLWVFGGGTKLTVLGQPKAAPSVTLFPPSSEELQANKATLVCLISDFYPGAVTVAWKADSSPVKAGVETTTPSKQSNNKYAASSYLSLTPEQWKSHRSYSCQVTHEGSTVEKTVAPTECS
VH: not shown
VL: not shown
notes: also called B21M IgG4 x CD3B217
As for B1, the dissociation constant Kd is 217 nM in assay [1] and 266 nM in assay [2].

B2: CD3B146 (antibody, IgG1, V domains shown)
VH: EVQLVESGGGLVQPGGSLRLSCAASGFTFNTYAMNWVRQAPGKGLEWVARIRSKYNNYATYYAASVKGRFTISRDDSKNSLYLQMNSLKTEDTAVYYCARHGNFGNSYVSWFAYWGQGTLVTVSS
VL: QTVVTQEPSLTVSPGGTVTLTCRSSTGAVTTSNYANWVQQKPGQAPRGLIGGTNKRAPGTPARFSGSLLGGKAALTLSGVQPEDEAEYYCALWYSNLWVFGGGTKLTVL
notes: IgG1 constant region with L234A, L235A, F405L; human lambda constant region; also called CD3B146 hu IgG1-AlaAla F405L
B2: the results for the Kd in assay [1] and in assay [2] were 1.1 nM and 3.2 nM, respectively.

B3: I3RB33 (antibody, IgG1, V domains shown)
VH: QVQLVQSGAEVKKPGSSVKVSCKASGGTFSSYGISWVRQAPGQGLEWMGGIIPIFGTANYAQKFQGRVTITADESTSTAYMELSSLRSEDTAVYYCARGYWHWNYDYLDYWGQGTLVTVSS
VL: EIVLTQSPATLSLSPGERATLSCRASQSVNDWLAWYQQKPGQAPRLLIYGASNRATGIPARFSGSGSGTDFTLTISSLEPEDFAVYYCQQYKRAPYTFGQGTKVEIK
notes: IgG1
Take B3: in assay [3], the Kd is 4.23 nM, the koff was 0.00177 s⁻¹ and the kon turned out to be 417000 M⁻¹ s⁻¹. Also, in assay [4], the binding result is recorded as “no binding (tested: 400 nM)”. The binding result in assay [5] was “binds”.

B4: I3RB30 (antibody, IgG1, V domains shown)
VH: QVQLVQSGAEVKKPGSSVKVSCKASGGTFSSYAISWVRQAPGQGLEWMGWIIPIFGTANYAQKFQGRVTITADESTSTAYMELSSLRSEDTAVYYCARLVYSSDFDYWGQGTLVTVSS
VL: EIVLTQSPATLSLSPGERATLSCRASQSVANWLAWYQQKPGQAPRLLIYYASNRATGIPARFSGSGSGTDFTLTISSLEPEDFAVYYCQQYDGWPRTFGQGTKVEIK
notes: IgG1; also called 13RB30
In the case of B4, in assay [3], the Kd came out at 4.17 nM, the koff is 0.00302 s⁻¹ and the kon turned out to be 725000 M⁻¹ s⁻¹. Further, in assay [4], the Kd was 330 nM, the koff was 0.048 s⁻¹ and the kon amounted to 145000 M⁻¹ s⁻¹. For the same molecule, in assay [5], the binding result was “no binding (tested: 10 µg/mL)”.

B5: I3RB40 (antibody, IgG1, V domains shown)
VH: QVQLVQSGAEVKKPGSSVKVSCKASGGTFSSYAISWVRQAPGQGLEWMGGIIPIFGTANYAQKFQGRVTITADESTSTAYMELSSLRSEDTAVYYCARGQWWADTWFDYWGQGTLVTVSS
VL: EIVLTQSPATLSLSPGERATLSCRASQSVAKWLAWYQQKPGQAPRLLIYGASNRATGIPARFSGSGSGTDFTLTISSLEPEDFAVYYCQQYHTAPWTFGQGTKVEIK
notes: IgG1
For B5, in assay [3], the Kd was 6.02 nM, the koff stood at 0.00346 s⁻¹ and the kon is 574000 M⁻¹ s⁻¹. Further, in assay [4], the binding result is on record as “no binding (tested: 400 nM)”. In addition, in assay [5], the binding result was “no binding (tested: 10 µg/mL)”.

B6: I3RB20 (antibody, IgG1, V domains shown)
VH: QVQLVQSGAEVKKPGSSVKVSCKASGGTFSSYAISWVRQAPGQGLEWMGGIIPIFGTANYAQKFQGRVTITADESTSTAYMELSSLRSEDTAVYYCARDDQIWGSYHLDYWGQGTLVTVSS
VL: not shown
notes: IgG1
With B6, in assay [3], the Kd was 1.68 nM, the koff came to 0.00106 s⁻¹ and the kon worked out at 631000 M⁻¹ s⁻¹.

B7: I3RB36 (antibody, IgG1, V domains shown)
VH: QVQLVQSGAEVKKPGSSVKVSCKASGGTFSSYGISWVRQAPGQGLEWMGGIIPIFGTANYAQKFQGRVTITADESTSTAYMELSSLRSEDTAVYYCARDLHVWAYSNFDYWGQGTLVTVSS
VL: not shown
notes: IgG1
As for B7, in assay [3], the Kd stood at 2.47 nM, the koff came to 0.00166 s⁻¹ and the kon worked out at 675000 M⁻¹ s⁻¹. Moreover, the binding result in assay [4] is on record as “no binding (tested: 400 nM)”.

B8: I3RB19 (antibody, IgG1, V domains shown)
VH: EVQLLESGGGLVQPGGSLRLSCAASGFTFSNYAMSWVRQAPGKGLEWVSGIRGNGSSTYYADSVKGRFTISRDNSKNTLYLQMNSLRAEDTAVYYCAKGGPIGARFPDYLDYWGQGTLVTVSS
VL: DIQMTQSPSSLSASVGDRVTITCRASQSIGDFLNWYQQKPGKAPKLLIYYASSLQSGVPSRFSGSGSGTDFTLTISSLQPEDFATYYCQQSYSTPLTFGQGTKVEIK
notes: IgG1; also called 13RB19
B8: in assay [3], the Kd turned out to be 119 nM, the koff was determined as 0.0251 s⁻¹ and the kon worked out at 211000 M⁻¹ s⁻¹. Moreover, in assay [4], the Kd was 48.3 nM, the koff worked out at 0.0161 s⁻¹ and the kon came to 334000 M⁻¹ s⁻¹. The binding result in assay [5] is recorded as “no binding (tested: 10 µg/mL)”.

B9: I3RB5 (antibody, IgG1, V domains shown)
VH: EVQLLESGGGLVQPGGSLRLSCAASGFTFSGYWMSWVRQAPGKGLEWVSGINYDGGSTYYADSVKGRFTISRDNSKNTLYLQMNSLRAEDTAVYYCAKDHFLAEFDYWGQGTLVTVSS
VL: not shown
notes: IgG1; also called I3RB05
With B9, the Kd in assay [3] is 12.8 nM and 12.9 nM; in assay [4] it was 4.88 nM and 4.09 nM.

B10: I3RB16 (antibody, IgG1, V domains shown)
VH: QVQLVQSGAEVKKPGSSVKVSCKASGGTFSSYAISWVRQAPGQGLEWMGGIIPIFGTANYAQKFQGRVTITADESTSTAYMELSSLRSEDTAVYYCARGAVWGDQWFDYWGQGTLVTVSS
VL: not shown
notes: IgG1
With B10, in assay [5], the binding result is recorded as “no binding (tested: 10 µg/mL)”.

B11: I3RB1 (antibody, IgG1, V domains shown)
VH: EVQLLESGGGLVQPGGSLRLSCAASGFTFSDYGMSWVRQAPGKGLEWVSVIRGGGSSKYYADSVKGRFTISRDNSKNTLYLQMNSLRAEDTAVYYCAKHSGSFRFNELDYWGQGTLVTVSS
VL: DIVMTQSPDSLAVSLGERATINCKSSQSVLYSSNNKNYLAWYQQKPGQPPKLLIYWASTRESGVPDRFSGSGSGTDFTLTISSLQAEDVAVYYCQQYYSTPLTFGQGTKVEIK
notes: IgG1; also called I3RB01
With B11, the binding result in assay [5] is given as “no binding (tested: 10 µg/mL)”.
